In a protein production outcome set (Wang et al. 2014):

Assay: label from the status in PepcDB records

Sequence | protein production
DASRQAELVREGITSSSDLVEQSLNKIEKGNSQLNAVTYLRADRALEEAKQINDHGQPFFGVPILLKGLGQKLAGEPATASSRLLKKLVADQTDFYVQALQKAGFIVIGQTNAPEFGFKNITDPTLYGPTRNPWNLDYYSGGSSGGAASSMAADFVSIASGSDGGGSIRIPASFSSLIGLKPTRGRIPVGPTDWRTWQGASISFALTRSVRDNARLLDAIQTVQPAAAFTTPLYEAGFFAGIDQLDRNLTIAYTTKSPVGTEVRDEAKTAVENAVDFLRSEGFQVEEQENPLDGKEIMQLYYLMNAGETAAMFADIEEGIGRPTNIQDMELMSWVIYQAGKLVTAGEYSQALSKWDISSYQMNQFHENYDLYLTPTTAYPAPKLTDELISPELLGRMKEVTSLTSSFERQQLIYDAFLPSLALTPFTQQANLTGEPAISLPTHLTAAGLPLGIQFQAAKGREIDLLRIARLFEKHNLFHFLHKTIF | failed
MTADSQTCFCVCTMAVTVTNNQAIDLSRAKAQGRAMAKPLTSHRPILAVSLKLGALVLFTSMSALIKVLSADFPAGEMVFFRSLFAIPVIILWLLARGELRQGLIVKKPMGHFWRGVLGTGAMGLTFTGLGLLPLPEVTAIGYATPIFTLILAALMLGETIRLVRIGAVALGLLGVLIMLWPRLGTGASLDQAATIGALCVLAATVARAFVQIHIRQLVQVDHAAAIVFYFSLTATLLSGLTAFFGWVTPTPEQAAILILTGLVGGVAQILVTSSYRFGQASMLAPYDYASMLFAIIIGYIWFDEWPTLVMLAGAMLVIAGNVVVIWRERQLGLERGKARSVTDPKG | failed
MSLFEAILIILVLIIISAVISSSEISLAGARKLKLHSLAKDGDIRAEKVMRLQEQPGRFITMVQIGLNMVAILGGVVGESAITPYLAKLLAQYSQAEWTESTASWLSFALVTSAFVLLADLMPKRIAMTYPEQVAVRTINIMLCLITIFKPLVLLFDSIANLLFRLFGISTVRQDNMTSEDIVAVVDAGAKAGILKAQEHYLIENVFEMQERRVTSTMTTRENIIFLDRKDNREQVLATLGEDPYSKVLICDNGLDKILGYIETHDLLTQYLKNDHVSLVDSRLLRKPVFIPDTLSLYEVLELFKSAGEDFAVIVNEYALVVGILTINDVMSIVMGELVSTEEEQIMRRNEDSWLIDGATPLEDVMRALNIHTFPRDENYETIGGFMMYMLRKIPKKTDFVLYDKYKFEIIDTENFRIDQLMVSFRKDV | failed
MHGLLPALKRGFKRWIGWRRLGIAASVFIIAFAITTLVRTLKGIDTGVILTALTEIPRGNIGLAAICVFFAFCTLTFYDFFALRTIGKKHVPYRIAALSSFTSYSIGHNIGATVFTGGAIRFRIYSDYGLNAIDVAKICFLSGLTFWLGNIFVLSIGMAVHPDAASSMDQLPSSINRLIALGGLASIGAYLVWLCMGEKRRELGQKGWKVVLPSAPLTLVQILIGVVDLGFCATAMYLLIPATPPIDFLSLAVVFILATLLGFASHAPGSIGVFDAAMLVALPEFGREQLLATLLVFRLLYFVIPFGLAISIMGTRELWMNVVEPWQERRRLAEACAQANLPKQVAAMERERSLRQASKR | failed
MTALKPALPDYLGNIRIILTRTSHPANIGSAARAMKTMGLHRLTIVTPNLMATPMTENPPVFNPDDVQSFALPEESFILASGAADVLHNAEIVATLDEALADTTIACALTSRRREITAPLQTPRDLVPELLQAANRGEKVALVFGNETFGLSIEEVRACNRLMTINGNPDYFSLNLAQAVQVVCYEIFSQTDSPMTHLQQEDHAATHEQIKGMLAHMESVMDDIGFFNRRNGERLMRRMQSLFGRANTQTEDIDILRGFFNTVSHRIHKKD | failed
MSLRKQSWLWMLLVILSETSATSTLKMFDNSQGMTKAALLAIIILLYCVCYYSLSKAVRHLPVGLAYATWSGTGILLVSTLSIIFYGQHPDIPAIVGMIVIATGIMIMNLFSKMGVDEQPEKLDSSNQSQPLETKIIH | failed
MKQIRLLAQYYVDLMVKLGLVRFSLLLASVLVLLAMVVQMAVTLLLSGEVENIDVVRSIFFGLLITPWAVYFLSVVVEQLEESRQRLSKLVAKLEEMRHRDLELNVQLQENIAQLNQEIADRIKAEEARVLVMSRLKEEMSRREQAQIELEQQSALLRSFLDASPDLVYYRNEEKEFSGCNRAMELLVGKSQKQLIGLTPQDVYAPDIAEKVMETDEKVFRHNVSLTYEQWLVYPDGRKACFELRKVPFYDRMGKRHGLMGFGRDITERKRYQDALENASRDKTTFISTISHELRTPLNGIVGLSRILLDTQLDLEQQKYLKTIHVSAITLGNIFNDVIEMDKQERRKVQLDNQPIDFTGFLVDLENLGGLLAEQKGLKLIMDQHQPLPQKVITDGTRLRQILWNLLSNAVKFTPKGEKGEKGEIVVRVWHEKGDRLRFEVEDSGMGIPADELEKIFAMYYQVKDQHGGKPATGSGIGLAVSKRLAQNMGGDIHVSSSQGKGSCFTLTVIAPSADEAGSGLEDDDDLPLPALHVLLVEDIELNVVVARSVLEKLGNSVDVAMTGQEALDMFDPDEFDLVLLDIQLPDMTGLDVARQLRSRYGKRSLPPLVALTANVLKDKREYLDAGMDDVLSKPLSVPALTAVIKQHWDTHTVWTEESVVEEGDEMAKVKEDLLDIPMLEQYLDLVGPKLIHQSLEMFEQMMPGYLAILDSNMTARDQKGITEEGHKIKGAAGSVGLRHLQQIAQQIQTSSLPAWWDNVQEWIDELKHDWRHDVQVLRDWVAKAEKES | failed
AQQQELPVPKPHQLKWHEAEMGAVFHYDLHVFDGIRYGQGNNRINPIEDYNIFNPTELNTDQWVQAAKAAGCKFAVLTATHETGFGLWQSDVNPYCLKAVKWRDGKGDIVRDFVNSCRKYGLQPGIYIGIRWNSLLGIHNFKAEGEGAFARNRQAWYKRLCEKMVTELCTRYGDLYMIWFDGGADDPRADGPDVEPIVNKYQPNCLFYHNIDRADFRWGGSETGTVEYPCWSTFPVPCSHHKRIESSIDQLELLKHGDKNGRYWVPAMADTPLRGANGRHEWFWEPDDENNIYPLNTLMDKYEKSVGRNATLILGLTPDPTGLIPAGDAQRLKEMGDEINRRFSSPIARISGQKKSLTLKLGKEQSVNYCIIQENIKNGERIRQYQIEAKVNGKWQTVCKGESVGHKRIEKFEPVEATALRLTVSESIALPDIINFSAYSVK | not failed
SAGTGVVAVYGEGAMTETKQKSPFSVKVGLAQMLRGGVIMDVVNAEQARIAEEAGACAVMALERVPADIRAQGGVARMSDPEMIKEIKNAVTIPVMAKARIGHFVEAQILEAIGVDYVDESEVLTLADEDNHINKHNFKIPFVCGCRNLGEALRRIREGAAMIRTKGEAGTGNVVEAVRHVRSVNGAIRLLRSMDDDEVFTYAKKIAAPYDLVVQTKELGRLPVVQFAAGGVATPADAALMMQLGCDGVFVGSGVFKSGDPVKRAKAIVQAVTNYRDAAVLAEVSCGLGEAMVGLNLDDKVERFASRSE | not failed
MAHVRLFRHYIHLPFVILGLIDLIVMGLAFALAVFFRFFGELEFFLDNLVFVLPSITIFALFNLIVMIALGVHQSRVEEGMSGMMLRTIMAMILAIPLHGFAYFVADDWLWYLGSFGLLTSATVLGIFSLGIARVVFFAVVGKDRFKRRVLVLGAGRRAKQMFEDLTTPFNRKGFSLDGFVPMPDDTVEVDEQYLINLPTSLHDYVLRHPVREIVVAVDDRRRGLPMEDLLECKMEGVHIIDGANFYERESRKVALEMITRGWLVFSDGFTVSSVYGVGKRALDVLASGTLLLATFPIMILTAIAIKLEDGLKAPVIYSQERVGLNNQVFKVHKFRSMITDAEKNGAVWARKNDTRVTRVGEFIRKVRIDELPQIFNVLNGTMAFVGPRPERPVFVEQLSEKIPFYAERHRVKPGLTGWAQLCFAYADNEEDTREKLRYDLYYIKNQSLLLDLLIIIQTVEVVLFKKGSR | failed
LSQAEQDKLDAAVFRQLLQHLDQHKEVQNIDLMILADFCRNCLCKWYAAEAEKQGLDLNIDDARERVYGMTYDEWKANHQPPATPEQLAAFEAKTKSK | failed
MDGLIPMALKAVKKNLTRRRYERLSYSATTRESYDFASDIEMNVDGRHHRRGWSVGDFSSLSSRETKRNGGVAPEKSLTPPREGQLVRFKSHRLFSCISGQ | failed
MNGSNHMKNKTLVISGATRGIGKAIFVRFAQSGVNIAFTYNKNVEEANKIIEDVEQKYSIKAKAYSLNVLEPEQYTELFKQIDADFDRVDFFISNAIIYGRSVVGGFAPFMRLKPKGLNNIYTATVLAFVVGAQEAAKRMQKIGGGAIVSLSSTGNLVYMPNYAGHGNSKNAVETMVKYAAVDLGEFNIRVNAVSGGPIDTDALKAFPDYVEIKEKVEEQSPLKRMGNPNDLAGAAYFLCDETQSGWLTGQTIVVDGGTTFK | failed
MLSLNQEVHGPKTSEVYGFVGSISIVVATVIFLIWGYVPDKFLESIGIYYYPSKYWAMAMPMYSMVTLLVALVFYIGLNFMSTSKPTSLNTLFDDYSREDVNFLPLMKNGEDRPIDPISDIDITRINDLMFDSHLAK | failed
MVTLQAFQPLIDTVQGSLLLASPDDGHIYCANQLACILLASPHSELLKSSVYDFLPDKNEAYTICRELAGNNMIYNRGMQLSTSTGRIFDVQLSARRISLDQVPLLVVSFSDRTETKVLGQLLDFERQLVERSLSIVKTLKEEGRQNDDEDKLTGVVGMHRLMSSAHSETSRAKRYGGSLSGLALELVNVPEMVPREDDGSAYGHLIRLAGSLCLQSSRDSDLVARRSANTFVILLPHTAIGGANEMGRRLIKSLRQLTFLYQGTEHQAAACVGISALRPEESSPTPMLERLEEALKKARDGGANYIIQLP | failed
MTEARAGLFARRRYLPALAVLYAALWLALAIEPHDRSDWLLENALVLGFGVALYATRRWFVFSRVSYTLIFLYLCLHAVGAHYTYSLVPYDAWWQRLTGHSLDQLLGWERNQFDRLVHFSYGLLLAYPIREIFLRVVDVRGFWGYLLPLDVALSTSALYELIEWGAAEFFGGELGVAYLGTQGDIWDAQKDMALAGLGALIAMLLTALFNRGARRDPARDWVDRMKPGHT | failed
MYLRPDEVARVLEKVGFTVDVVTQKAYGYRRGENYVYVNREARMGRTALVIHPTLKERSSTLAEPASDIKTCDHYQQFPLYLAGERHEHYGIPHGFSSRVALERYLNGLFGEAS | failed
EQQADGTWLMDGWISIRKASNLLEHDLVDEAERYSTLGGYLLWQFGYIPAAGEQITVDGLIFEIVSVNKHNIGKVRVHRTQPENE | not failed
MANFIEKITYLGTPAIKAGNEHLEMIVVPEWGSNVISLVDKTTNVQLLREPETAESFHDTPTLYGIPILFPPNRISDGTFSFRGRTYHFDINEKDKHNHLHGFLYHEKWNVVTTKQTDEGVIVETEIDLSELPHVQKQFPHHAVVRMTYTIKENTLFKHATVMNKGKEAFPWGIGYHTTFIFPAESSLFSLTADQQWELDERLLPTGKLMDVPYKEALHEGMDLRHKQLDDVFLSSYQKRGGENQAVIYHQHAHISIIYKADEQFKHWVVYNADGKQGYLCPEPYTWVTNAVNLDLPSSLTGLQVLEPGEETTAKSSITIELNHQ | not failed
MERKKITFDSFIRGSICCALIVGLLILFKRLSGVLLPFFVAWLIAYMIYPLVKFFQYKLRFKSRIISIFCALFSITIVGISLFYLLVPPMLAEMGRMNDLLVTYLTNGAYSSGTVPPTLSEFIHKHIDLQALNRILSEENIMNTIKETVPKLWALVAESINILFSVFASFIILLYVVFILLDYESIAEGWLHLLPGKYRTFASNLVNDIQDGMNRYFRGQAFVAFCVGILFSIGFLIIDFPMAIALGLFIGALNMVPYLQIIGFLPTIVLAILKAADTGENFWVILAGALIVFIVVQAIQDGFLVPRIMGKITGLNPAIILLSLSIWGSLLGMLGMIIALPLTTLMLSYYQRFIINKEKIKYDRHEVTDNQSAEENTKK | failed
